Results on 20 sequences are retold here after the DeepSol protein solubility set.

The data set can be described thus: soluble on expression in E. coli; label from the status in PepcDB or PDB records.
For “MSLSEELSFSAMVKAELALLTPELPCCRRMELAGLVRALGRLELSGRGRFALTLSTDSAPVSRKVIRLLKSVSPVRYEVMVMRRRKLRKNLVYRVHIPHQPGVAELLQLAGFIDEAGRPADWVEPPELANDHCRRAFLRGTFLGSGWVAGPEKQHHLEITTTATEAADALGQMLFRGGIAARMVARRESLVLYIKEADQIIRFLGLVGAHQALLRYEEVRVIKEMKNQVNRQVNAEVANMTKQADAAARQVEAIKRLEAAGALERVSPPLRELAGLRLAYPDASLKELGELCRPPVSKSGAAHRMRQLMALAESLEEGHHHHHH”, the “soluble on expression in E. coli” value is “soluble”.

As for “MSSVPRFWRNLGSRYNLEGTRCKECGEYFYPPRNVCVNCRRMGELEPFKFKGTGEIVSYTLIHTGAEGFEGQAPYTLAIIKLDEGPRLTSQVVGNTDNIQIGTRVRSVFRKLGEDGERGMIYYGTKFVPVDALEHHHHHH”, the “soluble on expression in E. coli” value is “soluble”. The entry for “MARLEVPRPATFVTLTGFMGVGKSRIGRELARALMLHFIDLDRYIERRTGISIPDIFRHLGEEAFRRMEKEAVRELVGKDYLVLSLGGGTFMDPESQKALLGRGPVVALWASPETILERAMRKPGERPLLQVENPLERIRTLLEARAPVYRKAHIHVSTDGRRVEEVVEEIVEKLWRHAEARGA” is “soluble”; for “MADAAPQLGKRKRELDVEEAHAASTEEKEAGVGNGTCAPVRLPFSGFRLQKVLRESARDKIIFLHGKVNEASGDGDGEDAVVILEKTPFQVEQVAQLLTGSPELQLQFSNDIYSTYHLFPPRQLNDVKTTVVYPATEKHLQKYLRQDLRLIRETGDDYRNITLPHLESQSLSIQWVYNILDKKAEADRIVFENPDPSDGFVLIPDLKWNQQQLDDLYLIAICHRRGIRSLRDLTPEHLPLLRNILHQGQEAILQRYRMKGDHLRVYLHYLPSYYHLNVHFTALGFEAPGSGVERAHLLAEVIENLECDPRHYQQRTLTFALRADDPLLKLLQEAQQS” it is “soluble”; for “MAQYRPDELARYAQRVMDWLHPDGDLTDTERARKRGITLSNQQYDGMSRLSGYLTPQARATFEAVLAKLAAPGATNPDDHTPVIDTTPDAAAIDRDTRSQAQRNHDGLLAGLRALIASGELGQHNGLPVSIVVTTTLTDLQTGAGKGFTGGGTLLPMADVIRMTSHAHHYSPASGRYPQAIFDHGTPLALYHTKRLASPAQRIMLEHHHHHH” it is “soluble”. The result for “MAVEVVMPKLGMAMKEGIITSWNIKAGDNVAKGELIASINSEKIETEIEAPADGTILDIAVSEDEGVPPGTVICYIGKPNEKVEVHESTKVEEELTASEVPQNVQHPEPLGKEVTNKQRIKISPVAKKIAKTENLDIRALLGTGPGGRITKVDVLKALEERVAIPEVLEESKVLPVTGMRKAIANRMHASLQNSAQLTLTMKVDVTDLVALHKEIAEVVQKRYDNKLTITDFVSRAVVLALGEHKEMNSAYIDDAIHQFEHVHLGMAVALEKGLVVPAIRFANNLSLVELSKEIKNAAQKARAGNLNSDDMQGTTFTISNLGSFGIEYFTPVLNTPETGILGVGAIEHVPVYKGKKLKKGSMLPLSLTFDHRVLDGAPAAAFLRTIKRYLEEPVTILL” reads “not soluble”; that for “GPLGSPILELKEKIQPEILELIKQQRLNRLVEGTCFRKLNARRRQDKFWYCRLSPNHKVLHYGDLEESPQGEVPHDSLQDKLPVADIKAVVTGKDCPHMKEKGALKQNKEVLELAFSILYDSNCQLNFIAPDKHEYCIWTDGLNALLGK”, “soluble”. In the case of “MNEIKTSCASTDRKWSTWESIDWNKCVIAVNKLQARIVKAQKAGKHGRVKSLQWVLTHSFYAKALAVKRVTSNSGSDTAGVDKVKWSTPNARFKAIGELKRRGYKPQPLKRVNIKKSNGKLRPLGIPTMKDRAMQALYLLALEPVSETTADSNSYGFRKERSTGDAREQCFCVLAKKASPEWIMEGDIQGCFDHISHEWLLNNIPMDKVMLRKWLKCGFVFNKELFPTEEGTPQGGIISPTLANMTLDGLQTMLAEKYHKKFVTRKTTTYYPKVHLVRYADDFIITGRNKEALEEIKPLVVDFLKERGLTLSEEKTKITHIDDGFDFLGYNIRKYKGVLLIKPSQKSLKKFMQKIRGIIDSNKGSKQESLIRLLNPVITGWVNYYKNCVASDTFRKADYLIFEKLWQWATRRHPKKGKYWIADRYFTRVKNRNWCFVANFKKGKTDDRIALKRLYDTKITRYVKVKGEANPFAPEWTEYFEKRKTYKMLQSLNGRKSLLYMWERQNHLCPVCGKPIDKEHPWGTSQQTVNGKKVNNLLHDSCRRKVIQTNKM”, the “soluble on expression in E. coli” value is “not soluble”. On to “MGSDKIHHHHHHMRIVYRASETFKKVHASTALVKAIRGPIGSGKSVGCVLEMFRVAQQQEPNAQGVRKTRWACVRNTYPELKGTVIKTFQTWIPEQICPIKYDSPITGKMNINHPDGKTRIEAEFLFLSMDKPKDVKKLMSLELTGIWINEAQFLPVSLVTEAVTRTGRYPEKRVEEGFMGATWNGMIMDTNSPDDDHWWYQFEQGIDEETEQPLKPKGWEFFVQPGALIDITGMPLATLSDEIKRNIEQGHYDDYLGHRFVANPIAENVINHKKGHGYWFDNIQGQTLNWIKSRVCNEFATVQQGKPVFGDHFNKELHVSTEKLVPVKGWETFIGLDFGLTPAAIIGQIAPIGQLRIVDEIVATGMGIERFITEQLSPLLRSRYAECAIQIIGDPAGVQRAQTDERTCFQLLEEYGFNARPAESNNTTARLEAVRWWLSRLVGKGQPAMLISPHCKTLIKGYETGYAYRQLNVSGEEKYTETPDKNRYSHPHDANQYLCLGAMPSLFKEQVINIKTHQPLSNITGY”, for which the “soluble on expression in E. coli” value is on record as “not soluble”. With “MSKRDYYETLGVSQDASEKEVKKAYKKLAMKYHPDRTQGDKSKEETFKEVKEAYEILNDDQKRAAYDQYGHAAFEQGGNGGGGGGHGGGFGQDFGDIFGDIFGGGGGGRGRQRQQRGSDLRYNVDLSLEDAVKGKSLEIKVPTYVSCEPCDGSGAKKGTSAKTCSTCHGHGQVQMRQGLFAVQQTCPTCSGKGKVIADKCTSCRGQGRVEKTKTLSVKIPAGVDTGDRIRLSGEGEAGEHGAPAGDLYVQVNVRDHEIFVRDENHLYCEVPISFVTAALGGDIEVPTLGGKVKLKVPKETQTGKMFRLRGKGVKSVRSSTTGDLMCKVVIETPVNLSGDQADLLRQLEEKMASSSKKHSPKETGFFDGVKKFFDDLKS”, the “soluble on expression in E. coli” value was “not soluble”. The entry for “GPGSMCNRFSCSSCRYVVPIQSRRPLTINHSFLKYNKVVDDDDEKGSSNTVKRGVKEEEEVDGGQVITVRCQNDEKQCDGDRAHYVQIQMRSADEPATTFFKCLKCGFQWKQD” is “soluble”. “MAVNGKTLIRRFNDYCPEWLAETGDPVGLHIGTLDKPIENVMVTLDVRPEVVAEAIEKQVDLIIAKHPPIFRPVKRLTTDNFQEKMYADLLKHDIAVYAAHTNMDIIDNGLNDWFCELLGIKQTTFLTKTHTVPYKKLAVFVPIDEAPQMREALGLAGAGSQGDYSKTSYSLIGTGRFTPTQGANPTIGEIGQESVVQEAKIEVIFPETKQEQVLAAMLQAHPYEEPAYDVYTIENQSKEFGLGRVGVLDKPVRFSYFVQQVKEAFQLDGLRVIAKDDTKMIQRVAICGGSGEKFYHDALRKQADVYITGDVYYHTAHDMIAEDLPVIDPGHYIEALCKPKLVELMNQWKQENEWAVSIFESEANTNPFRFK”: the “soluble on expression in E. coli” value is “not soluble”. The entry for “MSLFKSQTAILPEAGPFALYTLLKVRQNHAHVLQALKALPALVEEINQNQPGAELTVSVAFSKGFWSHFEMASPPELIDFPELGEGETHAPSTDVDVLIHCHATRHDLLFYTLRKGISDIAQDIEIVDETYGFRYLDARDMTGFIDGTENPKAEKRAEVALVADGDFAGGSYVMVQRFVHNLPAWNRLNLAAQEKVIGRTKPDSVELENVPAASHVGRVDIKEEGKGLKIVRHSLPYGSVSGDHGLLFIAYCHTLHNFKTMLESMYGVTDGKTDQLLRFTKAVTGAYFFAPSQVMLQELTLKNQEGGSHHHHHH” is “soluble”; for “MNALDLDVLQHARDWLASGRRVHLVTVVQTWGSAPRQAGAMLAVRDDGQVVGSVSGGCIEDDLIARARAGTLPERAERLTYGVTRDEATRFGLPCGGTLRLVAEPLAPRDAWLDEVLQAIAEHRLVRRTIDLHTGAAALEAAAPAEGPDFDGRMFRAVYGPHWRLLIIGANQTAQVRADIAATLDFQVIVCDPREEFHAAWHAPHATLVTTMPDDTVLEIGTDERTAIVALTHDPKLDDMVLLEALKSRAFYVGALGSRANQEKRRERLRLFDLGDEDIARLRGPVGLPIASRTPAEIAVAVAAELVWVRNTLGDREPSGAPLPAALAPAR” it is “not soluble”; for “MQQQKTVQPEAKQKVEVGVLAIRGHLYAEQRWQPTIDWLNQQISDVHFELHPLNLDEMGEAVKFQTMDFILTNPGQAVRLGRQYALSWMATLTGRAPQNSNYSIGSALVVRANSPYQTLKDVSGFPVAAVSEKAFGGYLTLRYQIVEMGLDPNDFFADVRYLGFPIDANLYQLRDGNVEAAVVPACLLEQMQNEGLLQHGDFRVLNQQPNEHSSCAVSTPLYPNWSFAKTERGSSLLAKKIAQVLLAMPPEHP” it is “not soluble”. As to “MIPKIIHYVWVGHNPKSKLIQECIATWKEKLPDYQFIEWNEDNFDMHENKYIEQAYKAKKWAFVSDYIRAKAIYEQGGIYLDTDVRVIASLTPLLDNKAFIGFENNNYLSAAIFGAEKGHPFMQDILDYYKDRNFEYDVNNQMAGVNSVSVTDMLIDRYGLKIGNKEQELKEGIHVYPDGVLCNPSVNSLSIHLFTGTWMNGKHSFKHKLVTFLKRHINTPKEAGLYAKWIRLEHHHHHH”, the “soluble on expression in E. coli” value is “soluble”. The entry for “MSLTDLDRVGLPVFQAVRPMGRSLSVSQGKGMTSMAARVSAMMEAVEIWHAEQDLPTTLRATIRSLGTRRAMDPNQLLMPGRDKVCEDLPIVWCPSLNLLDGADVLVPRDAANLDFTRAPDPPMLARSTTGLAGGNTRDEARASAIAEVIERACQREFQRLPPASRAQRRLDPTCLASAHRGLADPIERIRSAGLHLDIFDMTNRFDVPAIRAVIYETTAGKPVAWPCLGHGAHLDPVTAVVRALTEAAQARLTGISGNRDDISPGHYAGADMSNWVLRAMNGMDMSGTRRGLRHHDASGDSPAADVAAMIARITAHDADPLLEVDLSRPEIGVPVVKIIAPRIAYLASREGHHHHHH” is “not soluble”; for “MSLCRVLSVKPSSYYDWINRDISSQQIHRNQSELLIKAAHSETKERYGFERLHAHLNEQGYDISPYMVRNIKEEHGIKCRRHKRFKVTTDSNHNKLIYDNVLDQQFDVNRPNEAWVSDITYIWTTEGWLYLAGVKDLYTKELVGYAINKRMTADLVCKALNMAIKNKRPSKGLIVHSDRGGQYCSHAYHKIIKQHQFKGSMSGKGNCYDNAPIESFWGVLKNELVYHQDYKTRFAAITDIIRYIELYYNQTRIQKGLGYKSPRQVWFDYYRQAAEGHHHHHH” it is “soluble”; for “MGSDKIHHHHHHMNQIIPTSANGCIPNVYFMGRWTTQTVESKPAMYTTNLGAQILFEVQNADYFTLEAVINPLSAPQTLSIYIDDELHLTPLTRSKNDFKLSSNQSHIVRIYFTGNTDQDEIWLGNDGLTIKDITIASGTLAAIKPAGPLVAFIGDSITAGCWVRSKAPSIGYGADLNYAAQLSRALDWEDYRIAYSAAGIIRYGTGGVPPAGKFVKYVNFSVKAPRINPDLVLINLGTNDARYEDDVFEMYFVWFINEVKKQFPHARIIIITPFNQAHSHVIKNVAKALKIELIPTLDWVIETNDEVHPNVEGSKAISDHLVAWFTEPQNRLQSE” it is “not soluble”. For the sequence “SNAMITKAIYPGTFDPITNGHLDLVTRASAMFSHVILAIADSSSKKPMFTLDERVALAKKVTAPLKNVEVLGFSELMAEFAKKHNANILVRGLRSVSDFEYEWQLANMNRHLMPKLESVFLIPSEKWSFISSSLVKEVARHGGDITPFLPKPVTKALLAKLA”, the “soluble on expression in E. coli” value is listed as “soluble”.
